Assay results taken from the supplement of paper PMC6379048.
pEC50: −log10 of the molar value.

Experiments:
Assay in all cases: EC50 of free RNA motif oligo competing protein binding to immobilised probe
[1] = molecular target: MRPL13 (UniProt Q9BYD1)
Method in brief: (§1)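 HEK293-FT lysate (2.5 mg protein/well) was pre-incubated 1 h at 4°C with free RNA oligos (0 nM to 30 μM), then 30 min at 4°C with the same 5′-amino-C6 oligos coupled to NHS-Sepharose beads. Bound proteins were quantified by label-free LC-MS/MS in three biological replicates and two independent experiments, and normalised to the water control. EC50 came from a four-parameter log-logistic fit; Kd is EC50 times a protein-dependent depletion factor.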

[2] = molecular target: MRPL39 (UniProt Q9NYK5)
Method in brief: as §1

[3] = molecular target: T1, SRSF4 (UniProt Q08170)
T1 sequence: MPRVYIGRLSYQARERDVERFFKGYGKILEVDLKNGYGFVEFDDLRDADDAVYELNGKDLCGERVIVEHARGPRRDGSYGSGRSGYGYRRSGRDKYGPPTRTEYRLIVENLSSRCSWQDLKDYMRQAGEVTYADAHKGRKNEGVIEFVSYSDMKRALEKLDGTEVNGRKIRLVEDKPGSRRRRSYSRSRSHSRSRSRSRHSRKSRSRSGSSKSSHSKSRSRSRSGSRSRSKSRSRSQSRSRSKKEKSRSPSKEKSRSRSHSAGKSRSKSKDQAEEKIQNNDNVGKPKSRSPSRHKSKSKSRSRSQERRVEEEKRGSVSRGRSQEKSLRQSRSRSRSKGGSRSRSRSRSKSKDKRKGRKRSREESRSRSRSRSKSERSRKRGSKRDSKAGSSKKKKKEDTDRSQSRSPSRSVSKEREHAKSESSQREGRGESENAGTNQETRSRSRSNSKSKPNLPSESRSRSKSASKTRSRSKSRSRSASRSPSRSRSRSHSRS
Method in brief: as §1

[4] = molecular target: HSP90AB2P (UniProt Q58FF8)
Method in brief: as §1

[5] = molecular target: SF3B6 (UniProt Q9Y3B4)
Method in brief: as §1

[6] = molecular target: T2, UPF1 (UniProt Q92900)
T2 sequence: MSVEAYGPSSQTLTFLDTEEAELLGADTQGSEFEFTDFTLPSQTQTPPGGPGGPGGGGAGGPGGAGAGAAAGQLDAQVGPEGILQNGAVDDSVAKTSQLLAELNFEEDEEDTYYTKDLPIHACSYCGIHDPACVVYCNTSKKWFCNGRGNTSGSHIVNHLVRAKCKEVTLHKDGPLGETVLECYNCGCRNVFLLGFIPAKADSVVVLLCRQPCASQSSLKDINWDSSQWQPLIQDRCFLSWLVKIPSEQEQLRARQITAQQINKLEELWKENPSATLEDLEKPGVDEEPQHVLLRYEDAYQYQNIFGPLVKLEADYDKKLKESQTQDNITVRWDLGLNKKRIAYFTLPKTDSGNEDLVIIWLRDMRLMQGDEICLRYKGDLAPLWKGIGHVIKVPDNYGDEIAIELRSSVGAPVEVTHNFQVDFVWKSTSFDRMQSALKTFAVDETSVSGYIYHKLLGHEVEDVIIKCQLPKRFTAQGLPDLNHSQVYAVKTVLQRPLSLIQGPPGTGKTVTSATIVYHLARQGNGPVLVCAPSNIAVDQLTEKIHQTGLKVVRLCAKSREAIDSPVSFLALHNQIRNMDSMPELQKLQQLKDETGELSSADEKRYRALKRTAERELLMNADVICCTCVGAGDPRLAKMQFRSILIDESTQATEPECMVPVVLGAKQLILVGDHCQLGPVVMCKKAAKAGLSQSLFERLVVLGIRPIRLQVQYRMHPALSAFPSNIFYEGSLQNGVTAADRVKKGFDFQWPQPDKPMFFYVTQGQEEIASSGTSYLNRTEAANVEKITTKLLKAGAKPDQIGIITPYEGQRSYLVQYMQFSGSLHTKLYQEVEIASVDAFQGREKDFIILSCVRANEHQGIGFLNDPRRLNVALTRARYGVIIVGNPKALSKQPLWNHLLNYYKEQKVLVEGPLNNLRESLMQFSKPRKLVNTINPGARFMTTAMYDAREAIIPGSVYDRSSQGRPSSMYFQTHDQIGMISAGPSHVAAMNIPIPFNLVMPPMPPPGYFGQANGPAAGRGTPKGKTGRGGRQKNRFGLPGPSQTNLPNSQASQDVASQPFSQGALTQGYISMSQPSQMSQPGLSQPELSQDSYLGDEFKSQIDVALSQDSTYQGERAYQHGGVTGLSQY
Method in brief: as §1

[7] = molecular target: T3, TRIM56 (UniProt Q9BRZ2)
T3 sequence: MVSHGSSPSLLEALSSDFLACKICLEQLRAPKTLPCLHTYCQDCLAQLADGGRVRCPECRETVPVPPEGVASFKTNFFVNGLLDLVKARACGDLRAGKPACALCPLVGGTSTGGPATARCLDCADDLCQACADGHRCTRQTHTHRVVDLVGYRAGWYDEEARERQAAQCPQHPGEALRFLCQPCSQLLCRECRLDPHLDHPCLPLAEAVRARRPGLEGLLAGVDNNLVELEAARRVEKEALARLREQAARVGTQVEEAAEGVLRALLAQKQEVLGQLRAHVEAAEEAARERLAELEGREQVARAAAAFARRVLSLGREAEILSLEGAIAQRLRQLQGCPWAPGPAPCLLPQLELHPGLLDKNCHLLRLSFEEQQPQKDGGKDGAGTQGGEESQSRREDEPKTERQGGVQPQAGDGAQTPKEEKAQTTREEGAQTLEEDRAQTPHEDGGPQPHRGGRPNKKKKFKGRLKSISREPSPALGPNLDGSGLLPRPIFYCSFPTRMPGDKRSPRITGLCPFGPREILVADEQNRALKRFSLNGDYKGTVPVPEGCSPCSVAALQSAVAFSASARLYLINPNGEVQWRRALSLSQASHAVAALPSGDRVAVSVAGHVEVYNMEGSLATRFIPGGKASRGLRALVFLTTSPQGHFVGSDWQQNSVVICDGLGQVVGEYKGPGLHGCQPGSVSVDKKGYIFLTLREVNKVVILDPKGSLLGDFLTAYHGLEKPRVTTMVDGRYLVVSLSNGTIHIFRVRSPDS
Method in brief: as §1

Sequence of HSP90AB2P (Q58FF8 whole entry): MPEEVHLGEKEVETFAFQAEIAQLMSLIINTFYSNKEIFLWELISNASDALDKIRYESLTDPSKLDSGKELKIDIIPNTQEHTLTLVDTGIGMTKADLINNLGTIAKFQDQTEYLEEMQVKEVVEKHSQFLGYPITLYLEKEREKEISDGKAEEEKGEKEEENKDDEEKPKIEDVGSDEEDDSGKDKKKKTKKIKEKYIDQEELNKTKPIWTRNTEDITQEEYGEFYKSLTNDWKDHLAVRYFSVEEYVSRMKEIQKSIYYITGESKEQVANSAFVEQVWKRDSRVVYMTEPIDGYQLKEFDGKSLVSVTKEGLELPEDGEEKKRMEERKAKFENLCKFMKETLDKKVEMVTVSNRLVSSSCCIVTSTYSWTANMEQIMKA
Sequence of SF3B6 (Q9Y3B4 whole entry): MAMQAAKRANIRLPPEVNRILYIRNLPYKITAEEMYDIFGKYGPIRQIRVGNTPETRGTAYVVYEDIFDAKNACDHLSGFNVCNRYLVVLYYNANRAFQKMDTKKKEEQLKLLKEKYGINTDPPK

CUGUCCU gave a pEC50 [1] of 6.71, a pEC50 [2] of 6.61 and a pEC50 [3] of 6.01.

AAUAAA was tested, and the pEC50 [4] was 6.89, the pEC50 [5] was 5.34 and the pEC50 [6] was 5.31.

UAUUUAU showed a pEC50 [7] of 5.46.
